Here are results for two molecules from publication PMC10368638, “Differential CaKAN3-CaHSF8 associations underlie distinct immune and heat responses under high temperature and high humidity conditions”.

This data set addresses CaKAN3-GST (Capsicum annuum? (pepper), UniProt A0A2G2Z1N1 1-250). The data set can be described thus: EMSA; EMSA: 20 uL; 5x binding buffer printed as 1 M Tris-HCl pH 7.5, 5 M NaCl, 1 M KCl, 1 M MgCl2, 0.5 M EDTA pH 8.0, 10 mg/mL BSA (apparently stock concentrations). To be noted: protein: recombinant; tags: GST (pDEST-15); label: Cy5; blunt. For orientation: A gel shift assay detects complexes by their altered migration in electrophoresis.

CaKAN3-GST, sequence (A0A2G2Z1N1 entry or part of it): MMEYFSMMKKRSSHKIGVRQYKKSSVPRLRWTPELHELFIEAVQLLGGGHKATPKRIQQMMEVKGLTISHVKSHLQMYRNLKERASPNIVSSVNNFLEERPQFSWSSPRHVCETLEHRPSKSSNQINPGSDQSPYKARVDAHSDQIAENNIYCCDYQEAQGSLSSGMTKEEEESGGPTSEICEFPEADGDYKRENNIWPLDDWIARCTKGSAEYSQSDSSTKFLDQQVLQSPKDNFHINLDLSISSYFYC

B1: 3x AACAA probe (dsDNA)
DNA 1: AACAAAACAAAACAA
DNA 2: TTGTTTTGTTTTGTT
Turning to B1, the binding result is reported as “binds”.

B2: 3x AACAAm probe (3xAAAAA) (dsDNA)
DNA 1: AAAAAAAAAAAAAAA
DNA 2: TTTTTTTTTTTTTTT
Take B2: the binding result is listed as “no binding”.
